[ ]: non-standard residue; d: D form. pGlu = O=C1CC[C@@H](C(=O)O)N1; dNle = CCCC[C@@H](N)C(=O)O; dNva = CCC[C@@H](N)C(=O)O; Nle = CCCC[C@H](N)C(=O)O; Aib = CC(C)(N)C(=O)O
T1: APJ receptor (human, UniProt P35414 1-380)
T1 sequence (looked up): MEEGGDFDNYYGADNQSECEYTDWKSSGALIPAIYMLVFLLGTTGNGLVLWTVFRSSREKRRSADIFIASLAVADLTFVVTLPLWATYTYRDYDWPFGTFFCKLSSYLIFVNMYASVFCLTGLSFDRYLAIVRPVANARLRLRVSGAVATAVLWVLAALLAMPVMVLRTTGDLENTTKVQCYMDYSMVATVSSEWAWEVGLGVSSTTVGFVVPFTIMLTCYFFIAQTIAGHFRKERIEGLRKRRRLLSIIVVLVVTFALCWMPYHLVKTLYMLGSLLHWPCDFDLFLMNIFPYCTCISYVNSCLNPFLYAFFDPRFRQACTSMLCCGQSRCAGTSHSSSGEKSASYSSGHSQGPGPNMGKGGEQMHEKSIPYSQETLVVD

B1: pE-R-P-R-L-S-h-K-G-P-nle-a-f-OH (peptide)
peptide: [pGlu]RPRLS[dH]KGP[dNle][dA][dF]-OH
SMILES: CCCC[C@@H](NC(=O)[C@@H]1CCCN1C(=O)CNC(=O)[C@H](CCCCN)NC(=O)[C@@H](Cc1c[nH]cn1)NC(=O)[C@H](CO)NC(=O)[C@H](CC(C)C)NC(=O)[C@H](CCCNC(=N)N)NC(=O)[C@@H]1CCCN1C(=O)[C@H](CCCNC(=N)N)NC(=O)[C@@H]1CCC(=O)N1)C(=O)N[C@H](C)C(=O)N[C@H](Cc1ccccc1)C(=O)O
B2: H-R-P-R-L-a-H-K-G-P-nle-f-OH (peptide)
peptide: H-RPRL[dA]HKGP[dNle][dF]-OH
SMILES: CCCC[C@@H](NC(=O)[C@@H]1CCCN1C(=O)CNC(=O)[C@H](CCCCN)NC(=O)[C@H](Cc1c[nH]cn1)NC(=O)[C@@H](C)NC(=O)[C@H](CC(C)C)NC(=O)[C@H](CCCNC(=N)N)NC(=O)[C@@H]1CCCN1C(=O)[C@@H](N)CCCNC(=N)N)C(=O)N[C@H](Cc1ccccc1)C(=O)O
B3: pE-R-P-R-L-S-Aib-K-G-P-nle-a-f-OH (peptide)
peptide: [pGlu]RPRLS[Aib]KGP[dNle][dA][dF]-OH
SMILES: CCCC[C@@H](NC(=O)[C@@H]1CCCN1C(=O)CNC(=O)[C@H](CCCCN)NC(=O)C(C)(C)NC(=O)[C@H](CO)NC(=O)[C@H](CC(C)C)NC(=O)[C@H](CCCNC(=N)N)NC(=O)[C@@H]1CCCN1C(=O)[C@H](CCCNC(=N)N)NC(=O)[C@@H]1CCC(=O)N1)C(=O)N[C@H](C)C(=O)N[C@H](Cc1ccccc1)C(=O)O
B4: pE-R-P-R-L-nva-H-K-G-P-nle-a-f-OH (peptide)
peptide: [pGlu]RPRL[dNva]HKGP[dNle][dA][dF]-OH
SMILES: CCCC[C@@H](NC(=O)[C@@H]1CCCN1C(=O)CNC(=O)[C@H](CCCCN)NC(=O)[C@H](Cc1c[nH]cn1)NC(=O)[C@@H](CCC)NC(=O)[C@H](CC(C)C)NC(=O)[C@H](CCCNC(=N)N)NC(=O)[C@@H]1CCCN1C(=O)[C@H](CCCNC(=N)N)NC(=O)[C@@H]1CCC(=O)N1)C(=O)N[C@H](C)C(=O)N[C@H](Cc1ccccc1)C(=O)O
B5: pE-R-a-R-L-a-H-K-G-P-nle-a-f-OH (peptide)
peptide: [pGlu]R[dA]RL[dA]HKGP[dNle][dA][dF]-OH
SMILES: CCCC[C@@H](NC(=O)[C@@H]1CCCN1C(=O)CNC(=O)[C@H](CCCCN)NC(=O)[C@H](Cc1c[nH]cn1)NC(=O)[C@@H](C)NC(=O)[C@H](CC(C)C)NC(=O)[C@H](CCCNC(=N)N)NC(=O)[C@@H](C)NC(=O)[C@H](CCCNC(=N)N)NC(=O)[C@@H]1CCC(=O)N1)C(=O)N[C@H](C)C(=O)N[C@H](Cc1ccccc1)C(=O)O
B6: pE-R-P-R-L-S-Aib-k-G-P-nle-a-f-OH (peptide)
peptide: [pGlu]RPRLS[Aib][dK]GP[dNle][dA][dF]-OH
SMILES: CCCC[C@@H](NC(=O)[C@@H]1CCCN1C(=O)CNC(=O)[C@@H](CCCCN)NC(=O)C(C)(C)NC(=O)[C@H](CO)NC(=O)[C@H](CC(C)C)NC(=O)[C@H](CCCNC(=N)N)NC(=O)[C@@H]1CCCN1C(=O)[C@H](CCCNC(=N)N)NC(=O)[C@@H]1CCC(=O)N1)C(=O)N[C@H](C)C(=O)N[C@H](Cc1ccccc1)C(=O)O
B7: pE-R-P-R-L-a-H-Q-G-P-nle-a-f-OH (peptide)
peptide: [pGlu]RPRL[dA]HQGP[dNle][dA][dF]-OH
SMILES: CCCC[C@@H](NC(=O)[C@@H]1CCCN1C(=O)CNC(=O)[C@H](CCC(N)=O)NC(=O)[C@H](Cc1c[nH]cn1)NC(=O)[C@@H](C)NC(=O)[C@H](CC(C)C)NC(=O)[C@H](CCCNC(=N)N)NC(=O)[C@@H]1CCCN1C(=O)[C@H](CCCNC(=N)N)NC(=O)[C@@H]1CCC(=O)N1)C(=O)N[C@H](C)C(=O)N[C@H](Cc1ccccc1)C(=O)O
B8: pE-R-P-R-L-a-f-K-G-P-nle-a-f-OH (peptide)
peptide: [pGlu]RPRL[dA][dF]KGP[dNle][dA][dF]-OH
SMILES: CCCC[C@@H](NC(=O)[C@@H]1CCCN1C(=O)CNC(=O)[C@H](CCCCN)NC(=O)[C@@H](Cc1ccccc1)NC(=O)[C@@H](C)NC(=O)[C@H](CC(C)C)NC(=O)[C@H](CCCNC(=N)N)NC(=O)[C@@H]1CCCN1C(=O)[C@H](CCCNC(=N)N)NC(=O)[C@@H]1CCC(=O)N1)C(=O)N[C@H](C)C(=O)N[C@H](Cc1ccccc1)C(=O)O
B9: pE-R-P-R-L-S-f-K-G-P-nle-a-f-OH (peptide)
peptide: [pGlu]RPRLS[dF]KGP[dNle][dA][dF]-OH
SMILES: CCCC[C@@H](NC(=O)[C@@H]1CCCN1C(=O)CNC(=O)[C@H](CCCCN)NC(=O)[C@@H](Cc1ccccc1)NC(=O)[C@H](CO)NC(=O)[C@H](CC(C)C)NC(=O)[C@H](CCCNC(=N)N)NC(=O)[C@@H]1CCCN1C(=O)[C@H](CCCNC(=N)N)NC(=O)[C@@H]1CCC(=O)N1)C(=O)N[C@H](C)C(=O)N[C@H](Cc1ccccc1)C(=O)O
B10: pE-R-P-R-L-S-a-K-G-P-nle-a-f-OH (peptide)
peptide: [pGlu]RPRLS[dA]KGP[dNle][dA][dF]-OH
SMILES: CCCC[C@@H](NC(=O)[C@@H]1CCCN1C(=O)CNC(=O)[C@H](CCCCN)NC(=O)[C@@H](C)NC(=O)[C@H](CO)NC(=O)[C@H](CC(C)C)NC(=O)[C@H](CCCNC(=N)N)NC(=O)[C@@H]1CCCN1C(=O)[C@H](CCCNC(=N)N)NC(=O)[C@@H]1CCC(=O)N1)C(=O)N[C@H](C)C(=O)N[C@H](Cc1ccccc1)C(=O)O
B11: pE-R-P-R-L-a-H-K-G-P-nva-a-f-OH (peptide)
peptide: [pGlu]RPRL[dA]HKGP[dNva][dA][dF]-OH
SMILES: CCC[C@@H](NC(=O)[C@@H]1CCCN1C(=O)CNC(=O)[C@H](CCCCN)NC(=O)[C@H](Cc1c[nH]cn1)NC(=O)[C@@H](C)NC(=O)[C@H](CC(C)C)NC(=O)[C@H](CCCNC(=N)N)NC(=O)[C@@H]1CCCN1C(=O)[C@H](CCCNC(=N)N)NC(=O)[C@@H]1CCC(=O)N1)C(=O)N[C@H](C)C(=O)N[C@H](Cc1ccccc1)C(=O)O
B12: pE-R-P-R-L-a-H-K-G-P-nle-nva-f-OH (peptide)
peptide: [pGlu]RPRL[dA]HKGP[dNle][dNva][dF]-OH
SMILES: CCCC[C@@H](NC(=O)[C@@H]1CCCN1C(=O)CNC(=O)[C@H](CCCCN)NC(=O)[C@H](Cc1c[nH]cn1)NC(=O)[C@@H](C)NC(=O)[C@H](CC(C)C)NC(=O)[C@H](CCCNC(=N)N)NC(=O)[C@@H]1CCCN1C(=O)[C@H](CCCNC(=N)N)NC(=O)[C@@H]1CCC(=O)N1)C(=O)N[C@H](CCC)C(=O)N[C@H](Cc1ccccc1)C(=O)O
B13: pE-R-P-R-L-S-Aib-K-G-P-Nle-a-F-OH (peptide)
peptide: [pGlu]RPRLS[Aib]KGP[Nle][dA]F-OH
SMILES: CCCC[C@H](NC(=O)[C@@H]1CCCN1C(=O)CNC(=O)[C@H](CCCCN)NC(=O)C(C)(C)NC(=O)[C@H](CO)NC(=O)[C@H](CC(C)C)NC(=O)[C@H](CCCNC(=N)N)NC(=O)[C@@H]1CCCN1C(=O)[C@H](CCCNC(=N)N)NC(=O)[C@@H]1CCC(=O)N1)C(=O)N[C@H](C)C(=O)N[C@@H](Cc1ccccc1)C(=O)O
B14: pE-R-P-R-L-a-H-K-G-P-f-a-f-OH (peptide)
peptide: [pGlu]RPRL[dA]HKGP[dF][dA][dF]-OH
SMILES: CC(C)C[C@H](NC(=O)[C@H](CCCNC(=N)N)NC(=O)[C@@H]1CCCN1C(=O)[C@H](CCCNC(=N)N)NC(=O)[C@@H]1CCC(=O)N1)C(=O)N[C@H](C)C(=O)N[C@@H](Cc1c[nH]cn1)C(=O)N[C@@H](CCCCN)C(=O)NCC(=O)N1CCC[C@H]1C(=O)N[C@H](Cc1ccccc1)C(=O)N[C@H](C)C(=O)N[C@H](Cc1ccccc1)C(=O)O
B15: pE-R-P-R-L-a-a-K-G-P-nle-a-f-OH (peptide)
peptide: [pGlu]RPRL[dA][dA]KGP[dNle][dA][dF]-OH
SMILES: CCCC[C@@H](NC(=O)[C@@H]1CCCN1C(=O)CNC(=O)[C@H](CCCCN)NC(=O)[C@@H](C)NC(=O)[C@@H](C)NC(=O)[C@H](CC(C)C)NC(=O)[C@H](CCCNC(=N)N)NC(=O)[C@@H]1CCCN1C(=O)[C@H](CCCNC(=N)N)NC(=O)[C@@H]1CCC(=O)N1)C(=O)N[C@H](C)C(=O)N[C@H](Cc1ccccc1)C(=O)O
B16: pE-R-P-R-L-a-L-K-G-P-nle-a-f-OH (peptide)
peptide: [pGlu]RPRL[dA]LKGP[dNle][dA][dF]-OH
SMILES: CCCC[C@@H](NC(=O)[C@@H]1CCCN1C(=O)CNC(=O)[C@H](CCCCN)NC(=O)[C@H](CC(C)C)NC(=O)[C@@H](C)NC(=O)[C@H](CC(C)C)NC(=O)[C@H](CCCNC(=N)N)NC(=O)[C@@H]1CCCN1C(=O)[C@H](CCCNC(=N)N)NC(=O)[C@@H]1CCC(=O)N1)C(=O)N[C@H](C)C(=O)N[C@H](Cc1ccccc1)C(=O)O

Molecular target: T1, APJ receptor
Assay: cell-based or functional assay

Row | Binder | hAPJ Ca^2+ Flux EC50
1 | ERPRLAHKGPLF (pE at 1; D-Ala at 6; D-Nle at 11; D-Phe at 12) [pE-R-P-R-L-a-H-K-G-P-nle-f-OH] | 3.1 nM
2 | B1 | 6.8 nM
3 | B2 | 1.4 nM
4 | B3 | 2 nM
5 | B4 | 19.5 nM
6 | B5 | 623 nM
7 | ERPRLSXKGPLPF (pE at 1; Aib at 7; Nle (L-norleucine) at 11; D-Phe at 13) [pE-R-P-R-L-S-Aib-K-G-P-Nle-P-f-OH] | 4.5 nM
8 | ERPRLXHKGPLAF (pE at 1; D-Abu at 6; D-Nle at 11; D-Ala at 12; D-Phe at 13) [pE-R-P-R-L-abu-H-K-G-P-nle-a-f-OH] | 3 nM
9 | B6 | 79.9 nM
10 | B7 | 7.4 nM
11 | B8 | 9.2 nM
12 | [pGlu]RPRLA[dH]KGP[dNle][dA][dF]-OH [pE-R-P-R-L-A-h-K-G-P-nle-a-f-OH] | 55.1 nM
13 | B9 | 72.8 nM
14 | B10 | 8.5 nM
15 | B11 | 8.7 nM
16 | B12 | 0.9 nM
17 | B13 | 2.4 nM
18 | ERPRLAHKGPLXF (pE at 1; D-Ala at 6; D-Nle at 11; D-Abu at 12; D-Phe at 13) [pE-R-P-R-L-a-H-K-G-P-nle-abu-f-OH] | 2.4 nM
19 | B14 | 1.5 nM
20 | B15 | 16.1 nM
21 | B16 | 4.4 nM

From patent publication US10005829B2, “Synthetic linear apelin mimetics for the treatment of heart failure” (priority 2012, dated 2018)
